Data taken from patent US20080075726A1 (VACCINEX, published 2008).
Where a chain is given by its changes, count along the chain named. Values belong to the binder of their own block, whether it stands above or below them.

Experiments:
recombinant human IL-6 [1] = target: T1, recombinant human IL-6 (human, UniProt P05231 30-212, limits assumed); test: competition ELISA, rhIL-6 in solution against captured IL-6 (Affinity (nM) by IC50 ELISA)
T1 construct: also called rhIL6; human recombinant IL-6
Method: (§1) Briefly, plates were coated with 2 μg/ml of mBE4 capture antibody in coating buffer, 100 μl per well. The plates were incubated overnight. Next, the plates were washed 3 times and tapped dry. The plates were then blocked with 200 μl per well of Assay Diluent or 10% FBS in PBS and incubated for 2 hours. […] The reaction was left at RT for 3-4 hours. […] Next, the plates were washed 3 times and tapped dry. […] The plates were incubated for 1-2 hours. The plates were washed 3 times and tapped dry. […] The plates were incubated at RT for 2 hours. (Therefore, any unbound mAb at this point will be measured by ELISA). Plates were then washed 5 times and tapped dry. 100 μl of detection Ab goat anti-human IgG F(ab)′2-HRP (Jackson lab) was added at 1:20,000 dilutions or 1:40,000 dilutions (depending on lot) and the plates were incubated for 1-2 hours. The plates were washed 7 times and tapped dry. Next, the Developer Substrate (equal parts of each reagent in the kit) was pre-mixed and allowed to warm to room temperature before use. Then 100 μl of Developer was added to each well. The plates were allowed to develop for 15 minutes un-sealed in a drawer in the dark. Finally, developing was stopped by adding 100 μl of 2N H₂SO₄ to each well and plates were read as Endpoint at 450 nm-[…].
IC50 ELISA was performed as described above. Affinity analysis by Biacore was performed according to manufacturer protocols using HBS-EP buffer (Biacore AB).

recombinant human IL-6 [2] = target: T1, recombinant human IL-6; test: competition ELISA, rhIL-6 in solution against captured IL-6
Method: as §1

IC50 (recombinant human IL-6 [1]): 0.047 nM | IC50 (recombinant human IL-6 [2]): 0.047 nM
B1: mAb 1337 (antibody, V domains shown)
VH: QVTLKESGPTLVKPTQTLTLTCSFSGFSLSTSGVGVGWVRQPPGKALEWLAFIWWDDDKYYSPSLESRLTITKDTSKNQVVLTMTNMDPVDTATYYCARSADDYLYYSFDTWGQGTLVT
VL: DIQMTQSPSSLSAFVGDGVTMTCWASQSINDYLNWYHQRPGEAPELLVFAASNLQIGVPSRFRGSGSETYFTLTINSLQPEDSGTYFCQHGHSFPLTFGGGTKLEI

IC50 (recombinant human IL-6 [1]): 0.028 nM | IC50 (recombinant human IL-6 [2]): 0.028 nM
B2: mAb 1340 (antibody, V domains shown)
VH: B1 VH
VL: B1 VL with H90N, H92W

IC50 (recombinant human IL-6 [2]): 5.5 nM
B3: mAb 246 (antibody, V domains shown)
VH: QVTLKESGPTLVKPTQTLTLTCTFSGFSLSTSGVAVGWIRQPPGKALEWLALIFWDDDKHYSPSLKSRLTITKDTSKNQVVLTMTNMDPVDTATYYCARSYDDYLYYALDYWGQGTLVTVSS
VL: EIVLTQSPGTLSLSPGERATLSCRASQTIDSSYLAWYQQKPGQAPRLLVYGASSRATGIPDRFSDSGSGTDFTLTISRLEPEDFAVYYCQQYAKSPITFGQGTKLE

IC50 (recombinant human IL-6 [2]): 11.5 nM
B4: mAb 297 (antibody, V domains shown)
VH: B3 VH
VL: DIQMTQSPSSLSASVGDSVTITCRASQTISDFLNWYQQKPGKAPKLLIHASSNLQSGVPSRFSGSGSGTDFTLTISDLQPEDFATYSCQQTYSTLGTFGQGTRLE

IC50 (recombinant human IL-6 [2]): 2 nM
B5: mAb 248 (antibody, V domains shown)
VH: B3 VH
VL: DIVMTQSPSSLSASVGDRVTITCRASQTISSYLNWYQQKPGKPPKLLIYAASSLESGVPSRFSGSGSGTEFTLTISSLQPEDLATYYCQQANSFPLTFGGGTKLE

IC50 (recombinant human IL-6 [2]): 2 nM
B6: mAb 201 (antibody, V domains shown)
VH: QVTLKESGPALVKPTQTLTLTCTFSGFSLTTSGMCVSWIRQPPGKALEWLALIYWDDDKRYNPSLRSRLTITKDTSKNQVVLTMTNMDPVDTATYYCARSHDDYLYYALDYWGQGTLVT
VL: DIQMTQSPSSLSAFVGDGVTMTCWASQSINDYLNWYHQRPGEAPELLVFAASNLQIGVPSRFRGSGSETYFTLTINSLQPEDSGTYFCQQTSSFPLTFGGGTKLE

IC50 (recombinant human IL-6 [2]): 2.4 nM
B7: mAb 184 (antibody, V domains shown)
VH: B6 VH with H101Y
VL: DIQMTQSPSSLSASVGDSVTVTCRASQKMRTYLHWYQQKPGKAPKLLIYDVSFLQNGVPSRFSGRASGTEFTLTISDLQPEDFATYYCQQSYDTPLTFGQGTKLEIK

IC50 (recombinant human IL-6 [2]): 2.3 nM
B8: mAb 192 (antibody, V domains shown)
VH: B6 VH with H101Y
VL: DIVMTQSPSSLSASVGDRVTITCRASRNINTYLNWYQQKPGKAPKLLVHSASTLQSGAPSRFSGSGYGTEFTLIISSLQPDDFATYYCQQGYNTLTFGPGTKLE

IC50 (recombinant human IL-6 [2]): 2.7 nM
B9: mAb 193 (antibody, V domains shown)
VH: B6 VH with H101Y
VL: EIVLTQSPSSLSASVGDRVTISCRASQNIIDYLNWYQHKPGKVPTLLISGTSTLQSGVPSRFSGSGFGTDFTLTISSVQPEDVATYYCQQGHGTPLSFGGGTKLEIK

IC50 (recombinant human IL-6 [2]): 1.75 nM
B10: mAb 183 (antibody, V domains shown)
VH: B6 VH with H101Y
VL: DIQMTQSPSSLSASVGDSVTITCRASQSISIYLNWYQQKPGKAPDLLIYATSTLQSGVPSRFSGRGSGTHFTLTIDSLQPEDFATYYCQQTYRNLFTFGQGTKLE

IC50 (recombinant human IL-6 [2]): 6.3 nM
B11: mAb 182 (antibody, V domains shown)
VH: B6 VH with H101Y
VL: DIQMTQSPSSLSASVGDRVTITCRASQSISTYLNWYQQKLGKAPKLLIYAASSLQSGVPSRFSGSGSGTDFTLTISSLQPEDLATYYCQQSYRPLTFGGGTKLEIK

IC50 (recombinant human IL-6 [2]): 1.1 nM
B12: mAb 123 (antibody, V domains shown)
VH: B6 VH
VL: DIVMTQSPATLSVTPGDRVSLSCRASQSISDYLHWYQQKSHESPRLLIKSVSQSISGIPSRFSGSGSGSDFTLSINSVEPEDVGVYYCQNGHSFPLTFGAGTKLELK

IC50 (recombinant human IL-6 [2]): 1.9 nM
B13: mAb 190 (antibody, V domains shown)
VH: B6 VH with H101Y
VL: B4 VL

IC50 (recombinant human IL-6 [2]): 1.5 nM
B14: mAb 185 (antibody, V domains shown)
VH: B6 VH with H101Y
VL: DVVMTQSPSSVSASVGDRVTITCRASQVIDSWLHWYQREPGKAPKILIYAATTLQRGVPSRFSGSGFGTEFTLTISGLQPEDFATYFCQQGYSFPITFGQGTRLEIK

IC50 (recombinant human IL-6 [2]): 2.5 nM
B15: mAb 286 (antibody, V domains shown)
VH: B6 VH with T30S, A51T, N62S, R66E, S67T, H101Y
VL: B5 VL

IC50 (recombinant human IL-6 [2]): 6.2 nM
B16: mAb 265 (antibody, V domains shown)
VH: B6 VH with H101Y
VL: DIQMTQSPSTLSASVGDRVTITCRASQSMSDYLNWYQQKPGKAPKLLIYSASGLQSGVPSRFSGSGSGTDFTLTIINLQPEDVAAYYCQQSFSFPLTFGPGTKLEIK

IC50 (recombinant human IL-6 [2]): 12.9 nM
B17: mAb 181 (antibody, V domains shown)
VH: B6 VH with H101Y
VL: B5 VL

IC50 (recombinant human IL-6 [2]): 7.4 nM
B18: mAb 205 (antibody, V domains shown)
VH: B6 VH
VL: B9 VL

IC50 (recombinant human IL-6 [2]): 0.85 to 4.2 nM
B19: mAb 179 (antibody, V domains shown)
VH: B6 VH with H101Y
VL: B12 VL

IC50 (recombinant human IL-6 [2]): 2.4 nM
B20: mAb 202 (antibody, V domains shown)
VH: B6 VH
VL: B4 VL

IC50 (recombinant human IL-6 [2]): 2.2 nM
B21: mAb 242 (antibody, V domains shown)
VH: B1 VH with W54F, A101Y, S108A, F109L, T111Y
VL: B5 VL

IC50 (recombinant human IL-6 [2]): 3.7 nM
B22: mAb 197 (antibody, V domains shown)
VH: B6 VH
VL: B14 VL

IC50 (recombinant human IL-6 [2]): 9.6 nM
B23: mAb 239 (antibody, V domains shown)
VH: QVTLKESGPTLVKPTQTLTLTCIFSGFSFKTSGVSVGWIRQPPGKALEWLALIYWDDDKRYSPSLKNRLTITRDTSKNQVVLTMTNMDPVDTATYYCARSYDDYLYYALDYWGQGTLVT
VL: DVVMTQSPSSVSASVGDRVTITCRASQDIDNFLAWYQQKPGKAPNLLIYKVSSLRSGVPSRFSGSRSGTDFTLTITSLQPEDFATYFCQQTRRFPLTFGPGTKLE

IC50 (recombinant human IL-6 [2]): 4 nM
B24: mAb 247 (antibody, V domains shown)
VH: B3 VH
VL: B23 VL

IC50 (recombinant human IL-6 [2]): 2.5 nM
B25: mAb 285 (antibody, V domains shown)
VH: B6 VH with T30S, A51T, N62S, R66E, S67T, H101Y
VL: B23 VL

IC50 (recombinant human IL-6 [2]): 6.5 nM
B26: mAb 241 (antibody, V domains shown)
VH: B1 VH with W54F, A101Y, S108A, F109L, T111Y
VL: B23 VL

IC50 (recombinant human IL-6 [2]): 6.5 nM
B27: mAb 237 (antibody, V domains shown)
VH: B23 VH with I23T, F29L, K30R, I39F, I53V, K59R, S62N
VL: B23 VL
